Laboratory results: the supplement of paper PMC9170038

Test system: MS2 coat protein
Assay: apparent KD of MS2 coat protein; designed switch direction (-1 OFF switch, 1 ON switch): -1; higher = weaker reporter binding
How it was run: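 RNA switches sharing common flanks were transcribed by stalled E. coli RNA polymerase on Illumina chips. A doubling series of SNAP-549-labelled MS2 coat protein, from 0.7 or 1.5 nM to 3 µM, was applied in Tris-HCl pH 7.5 buffer with KCl, MgCl2, BSA, DTT, tRNA and Tween-20. Each step lasted 0.8–1.5 h at the bottom of the series and 10–20 min at the top. Normalised cluster fluorescence was curve-fitted, giving apparent KD as the per-design median over clusters.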

[1] = Eterna round: R95, input ligand: FMN 200 uM
[2] = Eterna round: R95, input ligand: microRNA oligo, concentration not stated
[3] = Eterna round: R95, input ligand: none
[4] = input ligand: microRNA oligo, concentration not stated

Sequence | apparent KD of MS2 coat protein (input ligand: FMN 200 uM) | apparent KD of MS2 coat protein (input ligand: none) | apparent KD of MS2 coat protein [1] | apparent KD of MS2 coat protein [2] | apparent KD of MS2 coat protein [3] | apparent KD of MS2 coat protein [4]
GUCUAGAGAGGAUAUAUUUACAGUGUACGUCGGAUGAUCGCACUUGAGGAUCACCCAAGUAGAAGGCUCGAGGG [EX2 #31] (Eterna round: R97, puzzle: Exclusion 2) | 875 nM | 1850 nM |  |  |  | 
UGGUUGUCAGGAUAUACGGUUUUUAACUUUAGUUUUAUAUUGUAGAAGGGACAUGAGGAUCACCCAUGUUACGU [LRO-Excl4-11-Bluer Omei Mod] (Eterna round: R97, puzzle: Exclusion 4) | 29.5 nM | 26.5 nM |  |  |  | 
GGUUGGCGAGGAUAUACAUGAGGAUCACCCAUGUGAGAGAAAAAACUGAGGAAGAAAAGUAGAAGGCGCUGACG [salish99_ex3_r3_026] (puzzle: Exclusion 3) |  |  | 117 nM | 23.4 nM | 35.5 nM | 
GCCGAUUAAGUGAGGAUAUACCUAUGGAUACAUAGGUAGAAGGCACAUGAGGAUCACCCAUGUAUCCUAUCGGC [Eli bmx4 4.27] (Eterna round: R97, puzzle: Brourd's mod of Exclusion 4) | 517 nM | 59.8 nM |  |  |  | 
AUGAGGGUAAGAAGGUGAAGAUAGAGCGUACCUUAUGGAACAUGAGGAUCACCCAUGUAGCUUUUUGCUCGUCUUAU [JR_SV3TOV2_Sub032] (puzzle: Sensor v3, turn-off variant 2) |  |  | 36.1 nM | 84 nM | 35.6 nM | 
GGUUGACAUGAGGAUCACCCAUGUGAGGAUAUGCGAGAGAAAAAAGUGAGGAAGUUUAGCAGAAGGCGCUGUCG [salish99-ex1_r3_006] (puzzle: Exclusion 1) |  |  | 55.6 nM | 71 nM | 97.7 nM | 
GUUUUAUAUGAAGGAUAUACUUAACAUGAGGAUCACCCAUGUGGUGUUGUGAGUGAGUGAGUUUAGUAGAAGGUCAAUUAUUUU [JMF's solution 33] (Eterna round: R96, puzzle: Exclusion NG 2) | 409 nM | 184 nM |  |  |  | 174 nM
GCGCAGUCAGGAUAUGCCGCUGGCGAUCACCGUGGGCAAAGGCAGAAGGGACAUGAGGAUCACCCAUGUGGCGC [e4e Mirror Pins #2] (puzzle: Exclusion 4) |  |  |  | 39 nM |  | 
UUUACAAGCUUAAGAUCCCACAUGAGGAUCACCCAUGUUGCUGCCGUGAGGUAGCUUUUAACUUAUGCUCGUCUUAU [JL TOV1 3.42] (Eterna round: R97, puzzle: Sensor, turn-off variant 1) | 94 nM | 110 nM |  |  |  | 
AUUUUGUCAGGAUAUUAGUAGUAAAUGAAUAAAAUUAUUACUGAGAAGGGACAUGAGGAUCACCCAUGUGUCUU [Mat - Exclusion 4 - Eli Mod - D9] (Eterna round: R97, puzzle: Exclusion 4) | 24.1 nM | 23 nM |  |  |  | 
AGUGUGUGGCAGGAUAUUCUAAUCUUUAGGAGGGAAGAAGGGUCUACAUGAGGAUCACCCAUGUAAGCGGUUGA [Ex6 #40] (Eterna round: R97, puzzle: Exclusion 6) | 221 nM | 75.3 nM |  |  |  | 
CUCCAUGCCCAGGCUUAGAACAUGAGGAUCACCCAUGUAGAUCCAGAAAAUUUGCUCGUCAGGCAAUUUAUAGAUUG [Eternabot (L1) Solution 9] (Eterna round: R97, puzzle: Sensor, turn-off variant 1) | 500 nM | 687 nM |  |  |  | 
GGAAGAGAGAUAGGAUAUUAAAGGAAGAUGGUGAGAGAGACAUGAGGAUCACCCAUGUAAAGGAAUAAGAAGGGUCAGAAGGAA [EXNG2 V2 g] (Eterna round: R96, puzzle: Exclusion NG 2) | 137 nM | 184 nM |  |  |  | 104 nM
AGUAACCGUCACGAAAGUGAUGGUUACGCAAGUAAAUGUACAUGAGGAUCACCCAUGUCCUCAUUUGCUCGUCUUAU [Sensor 3 - 44] (puzzle: Sensor v3, turn-off variant 2) |  |  | 188 nM | 330 nM |  | 
UUGCAGUCGUCAGGAUAUAGUAUUACGGCCAUUUUUUUUUUCAUACAUGAGGAUCACCCAUGUCGCUAGAAGGGAUUAUCGAUU [salish99_ExNG2_r04_103] (Eterna round: R96, puzzle: Exclusion NG 2) | 71 nM | 67 nM |  |  |  | 57.1 nM
GCAUCGGCAGGAUAUACGCCGUAUGACAUGAGGAUCACCCAUGUUCCCGAGUCACAGAAAGUAGAAGGGCUGGAUA [Eternabot (L2) Solution 70] (Eterna round: R97, puzzle: Exclusion 5) | 236 nM | 182 nM |  |  |  | 
CCGUUAUGAGGAUAUCGCUUGAAAGACAUGAGGAUCACCCAUGUGGGCGCGUCCUCAUGGCGAGAAGGCAUUACGA [Enmaatama] (puzzle: Exclusion 5) |  |  | 9.07 nM | 13.1 nM | 12.6 nM | 

Sequence | apparent KD of MS2 coat protein (input ligand: FMN 200 uM) | apparent KD of MS2 coat protein (input ligand: none) | apparent KD of MS2 coat protein [1] | apparent KD of MS2 coat protein [2] | apparent KD of MS2 coat protein [3] | apparent KD of MS2 coat protein [4]
GCAGCAUAGUCGGAAACGACAGAACAUGAGGAUCACCCAUGUUAGGAUAUGGUCUGGAUUACAGGCCAGAAGGGACAAAGCUGC [Eli exng3 - 009] (Eterna round: R96, puzzle: Exclusion NG 3) | 34.8 nM | 39.9 nM |  |  |  | 29.7 nM
GGCUGACGCGGUAGGCCUUACAUGAGGAUCACCCAUGUCGAUGCCAUUCCAAAACACGGGUUUGAGGUUCGUCAUUG [Eternabot (L1) Solution 46] (Eterna round: R97, puzzle: Sensor, turn-off variant 1) | 99.7 nM | 100 nM |  |  |  | 
CGCUGGACAGGAUAUGUUUUUGGGCACUUGAGGAUCACCCAAGUCAUCAAGAAAACAGGCACAGAAGGGUUUAUGG [salish99_ex5_r4_022(!)] (Eterna round: R97, puzzle: Exclusion 5) | 28 nM | 25.1 nM |  |  |  | 
CUUGUUUAUGUAGGAUAUGCCUGGCGUGCCUUUGCAGAAGGACAUGAGGAUCACCCAUGUAUUGCGGUCUGCGUUCAGAUCGCG [salish99_ExNG1_r4_043] (Eterna round: R96, puzzle: Exclusion NG 1) | 39 nM | 34.9 nM |  |  |  | 25.8 nM
GAGUAGUAAGGAUAUAGUAGGAGGGAGAAGUGAGGAGAGAACUAGAAGGUACAUGAGGAUCACCCAUGUUGAGA [JR_Exclu4_Sub084] (puzzle: Exclusion 4) |  |  | 24.3 nM | 19.2 nM | 19.5 nM | 
GUCGAACAUGAGGAUCACCCAUGUGAGGAUAUGCGAAUUUCAUCAAAAGAUGAAAUUUGCAGAAGGCACACGAC [Omei Ex1 A15] (Eterna round: R97, puzzle: Exclusion 1) | 26.4 nM | 23.4 nM |  |  |  | 
AGUCGUAGACAGGAUAUGCGGCUAAUAAAUAAAGCAGAAGGGUCUACUUGAGGAUCACCCAAGUGGGCGGUCUG [jl-ex6-4.22 ViennaUCT mod] (Eterna round: R97, puzzle: Exclusion 6) | 64.9 nM | 16.9 nM |  |  |  | 
UUUUAACAUGAGGAUCACCCAUGUGAGGAUAUCGAAAUUUAUAUUUAUAUUUAUAUUACGAGAAGGCACAUUUU [JMF 98] (puzzle: Exclusion 1) |  |  |  | 84.3 nM |  | 
AAGUACCGUCACGAUAGUGAUGGUACAACAAGCAGUGAUACAUGAGGAUCACCCAUGUCCUCAAUUGCUCGUCUUAU [Sensor 3 - 75] (puzzle: Sensor v3, turn-off variant 2) |  |  | 133 nM | 307 nM | 157 nM | 
UUUUGCUCAGGAUAUACAUGAGGAUCACCCAUGUAUAUUGAAAAUAAUACAUGGGAAUGUAGAAGGGAGCUCAU [Omei Ex3 Pseudoloop 20] (Eterna round: R97, puzzle: Exclusion 3) | 127 nM | 168 nM |  |  |  | 
GCUUGUAGAGGAUAUACAAGGGCCCACGCGGCGAGAGCCGCACAUGAGGAUCACCCAUGUAGAAGGCUACUAUA [JL-ex2-4.23 ViennaUCT mod] (Eterna round: R97, puzzle: Exclusion 2) | 125 nM | 363 nM |  |  |  | 
CUUUAGUGAGGAUAUCAGUAGUAAUACAAUAGUAUUAUUACUGAGAAGGCACAUGAGGAUCACCCAUGUUCCUC [Mat - Exclusion 4 - Mod of Omei - D81] (puzzle: Exclusion 4) |  |  |  | 26.9 nM |  | 
ACAAGCAGAGAGUAAAUGGACAUGAGGAUCACCCAUGUGAGUCCAAGGAGAUAAGAUAUAUUAUUGGCUCGUCUUAU [AK-miRNA-r3-20] (Eterna round: R97, puzzle: Sensor, turn-off variant 1) | 75.2 nM | 104 nM |  |  |  | 
CGGUGCUGAGGAUAUACAUGAGGAUCACCCAUGUGUGCCAGCUAGAAGACUGGCACUUGUAGAAGGCAGUACUG [Mat - Exclusion 3 - Mod of JL D90] (puzzle: Exclusion 3) |  |  |  | 10.3 nM |  | 
GAAAAGGUAGGAUAUACGGAAAAAAAGGGUAGAAAAAAAACACAUGAGGAUCACCCAUGUAGAAGGACCAAAAG [salish99_ex2_r3_030] (puzzle: Exclusion 2) |  |  | 60.9 nM | 32.5 nM | 27.4 nM | 
GUUGUUUAUGUAGGAUAUGCCUGGCGUGCCUAAGCAGAAGGACAUGAGGAUCACCCAUGUAUUGCGGUCUGCGUUCAGAUCGCU [salish99_ExNG1_r4_019] (Eterna round: R96, puzzle: Exclusion NG 1) | 36.8 nM | 23.8 nM |  |  |  | 17.2 nM
UUCAGGAGUCGAGGAUAUUUGCAGACGACAUGAGGAUCACCCAUGUGGUUAGCAUAGUCUUCAGCAGAGAAGGCGACCAACGAG [Eternabot solution 20] (Eterna round: R96, puzzle: Exclusion NG 2) | 171 nM | 40.3 nM |  |  |  | 40 nM
